Relative binding data for 6 molecules are collected here from PMC3721995.

Ends that are not written are not given here. * marks the point of attachment. Biotin = O=C1N[C@H]2[C@H](CS[C@H]2CCCCC(=O)*)N1

The target of the experiment is recombinant HIV-1 gp120BaL protein (HIV-1 (isolate BaL)). Description: ELISA; solid-phase ELISA; gp120BaL coated at 8 ug/ml (50 mM bicarbonate pH 9.6, 4°C, 16 h); biotinylated peptides at 30 ug/ml in 20 mM Tris-HCl pH 7.4, 0.05% Tween-20, 37°C, 60 min; detected with AP-streptavidin, read at 405 nm. (In general: An ELISA detects its analyte on a solid surface through an enzyme-linked reagent.)

Turning to Biotin-VEILYRGSWGTVCDD [SRCR1 peptide P5], the relative binding is 4.
Then Biotin-GSGPIALDDVRCSGH [SRCR1 peptide P14], with 1.5; and Biotin-ALDDVRCSGHESYLW [SRCR1 peptide P15], with 2; and Biotin-GWLSHNCGHGEDAGV [SRCR1 peptide P19, biotinylated], with 7.5.
Then Biotin-RGSWGTVCDDSWDTN [SRCR1 peptide P6], with 4.5; and Biotin-NCGHGEDAGVICSA (cysteine pairing not given here) [SRCR1 peptide P20], with 1.5.
